Measurements as given in US20210292423A1 (published 2021).

How the values were obtained:
[1] = molecular target: T1, human CD3ε/δ-Fc fusion protein (soluble recombinant CD3ε/δ complex) (human, UniProt P04234 22-105); assay: SPR Biacore, Fab
T1 construct: also called huCD3ε/δ; huCD3; not shown: hinge, CH2, CH3 of human IgG with tag
Protocol: (§1) Binding affinities of anti-CD3 binding Fabs or CODV-Fabs were measured by surface plasmon resonance (SPR) using a Biacore3000 instrument (GE Healthcare). Assay buffer was HBS-EP (BR-1001-88, GE Healthcare). Capture of CD3ε/δ-Fc fusion proteins was achieved using the human antibody capture kit (GE Healthcare). […] The CD3εδ-Fc fusions proteins were captured at 10 μl/min to approx. 70 RU to yield Rmax values of 30 RU. Binding kinetics with the anti-CD3 Fabs or CODV-Fabs was measured at 30 μl/min for 240 sec. and 600 sec. for association and dissociation phase, respectively. Twofold dilutions of Fabs from 3 to 400 nM in assay buffer were used. All Fab concentrations were run in duplicate together with duplicate buffer blanks for double referencing. Regeneration of the capture surface was performed with a 1 min injection of 3M MgCl2 solution at 30 μl/min. For data analysis the BIAevaluation software v.4.1 (GE Healthcare) was used. Data were fit globally using a 1:1 Langmuir model with mass transfer.

[2] = molecular target: T1, human CD3ε/δ-Fc fusion protein (soluble …); assay: SPR Biacore, CODV-Fab on recombinant CD3ε/δ
Protocol: as §1

T1 sequence (chain, as listed by the source mutant, chain 1 of 2): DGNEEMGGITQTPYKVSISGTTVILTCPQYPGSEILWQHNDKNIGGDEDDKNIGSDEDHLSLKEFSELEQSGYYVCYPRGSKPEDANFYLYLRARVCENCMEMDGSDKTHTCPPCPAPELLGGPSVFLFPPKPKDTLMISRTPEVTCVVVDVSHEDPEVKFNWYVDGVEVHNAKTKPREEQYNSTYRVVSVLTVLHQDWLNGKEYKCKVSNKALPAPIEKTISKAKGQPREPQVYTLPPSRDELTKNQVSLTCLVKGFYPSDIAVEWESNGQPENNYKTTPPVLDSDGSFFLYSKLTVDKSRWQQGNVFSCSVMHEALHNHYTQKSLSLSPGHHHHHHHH
T1 sequence (P04234 22-105, stated change not applied, chain 2 of 2): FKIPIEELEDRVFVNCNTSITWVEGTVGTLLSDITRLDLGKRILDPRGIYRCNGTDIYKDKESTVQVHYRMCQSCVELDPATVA

B1: humanized 4B4 Fab 4B4_10 (VL1_CM2, VH6_BM2) (Fab, V domains shown)
VH: QVQLVESGGRVVQPGRSLRLTCAASGFTFSNAWMHWVRQAPGKQLEWVAQIKARSNNYATYYAESVKGRFTISRDDSKSTIYLQMNSLRAEDTAVYYCRGTYYASKPFDYWGQGTTVTVSS
VL: DVVMTQSPLSLSVTLGQPVSISCRSSQSLVHDNGNTYLSWSLQRPGQSPRVLIYKVSNRFSGVPDRFSGSGSGTDFTLKISRVEAEDVGVYYCGQGTQYPFTFGSGTKLEIK
In the case of B1, the Kd [1] is reported as 0.00919 µM, the koff [1] is reported as 0.00399 s⁻¹ and the kon [1] is reported as 434000 M⁻¹ s⁻¹.

B2: humanized 4B4 Fab 4B4_20 (VL2F, VH6C) (Fab, V domains shown)
VH: QVQLVESGGGVVQPGRSLRLSCAASGFTFSNAWMHWVRQAPGKQLEWVAQIKARSNNYATYYADSVKGRFTISRDDSKSTLYLQMNSLRAEDTAVYYCRGTYYASKPFDYWGQGTLVTVSS
VL: DIVMTQTPLSLSVTPGQPASISCKSSQSLVHDNANTYLSWYLQKPGQSPQSLIYKVSNRFSGVPDRFSGSGSGTDFTLKISRVEAEDVGVYYCGQGTQYPFTFGSGTKVEIK
notes: expressed as Fab-fragment
With B2 the Kd [1] was 0.0335 µM, the koff [1] was 0.00171 s⁻¹ and the kon [1] was 50900 M⁻¹ s⁻¹.

B3: humanized 4B4 Fab 4B4_5 (VL2C, VH6D) (Fab, V domains shown)
VH: QVQLVESGGGVVQPGRSLRLSCATSGFTFSNAWMHWVRQAPGKQLEWVAQIKARSNNYATYYADSVKGRFTISRDDSKSTIYLQMNSLRAEDTAVYYCRGTYYASKPFDYWGQGTLVTVSS
VL: DIVMTQTPLSLSVTPGQPASISCKSSQSLVHDNGNTYLSWSLQKPGQSPQVLIYKVSNRFSGVPDRFSGSGSGTDFTLKISRVEAEDVGVYYCGQGTQYPFTFGSGTKLEIK
notes: expressed as Fab-fragment
In the case of B3, the Kd [1] is reported as 0.0182 µM, the koff [1] is reported as 0.00423 s⁻¹ and the kon [1] is reported as 233000 M⁻¹ s⁻¹.

B4: CODV-Fab 7G3 × 20G6 with humanized 20G6 VL1D_VH1B (bispecific antibody)
light: DIVMTQTPLSLSVTPGQPASISCKSSQSLVHNNGNTYLSWYLQKPGQSPQSLIYKVSNRFSGVPDRFSGSGSGTDFTLKISRVEAEDVGVYYCGQGTQYPFTFGSGTKVEIKGQPKAAPDFVMTQSPSSLTVTAGEKVTMSCKSSQSLLNSGNQKNYLTWYLQKPGQPPKLLIYWASTRESGVPDRFTGSGSGTDFTLTISSVQAEDLAVYYCQNDYSYPYTFGGGTKLEIKTKGPSRTVAAPSVFIFPPSDEQLKSGTASVVCLLNNFYPREAKVQWKVDNALQSGNSQESVTEQDSKDSTYSLSSTLTLSKADYEKHKVYACEVTHQGLSSPVTKSFNRGEC
heavy: EVQLQQSGPELVKPGASVKMSCKASGYTFTDYYMKWVKQSHGKSLEWIGDIIPSNGATFYNQKFKGKATLTVDRSSSTAYMHLNSLTSEDSAVYYCTRSHLLRASWFAYWGQGTLVTVSASQVQLVESGGGVVQPGRSLRLSCAASGFTFTKAWMHWVRQAPGKQLEWVAQIKDKSNSYATYYADSVKGRFTISRDNSKNTLYLQMNSLRAEDTAVYYCRGVYYALSPFDYWGQGTLVTVSSRTASTKGPSVFPLAPSSKSTSGGTAALGCLVKDYFPEPVTVSWNSGALTSGVHTFPAVLQSSGLYSLSSVVTVPSSSLGTQTYICNVNHKPSNTKVDKKVEPKSCDKTHTHHHHHH
For B4, the Kd [2] was 0.0587 µM, the koff [2] was 0.00109 s⁻¹ and the kon [2] was 18600 M⁻¹ s⁻¹.

B5: CODV-Fab 7G3 × 20G6 with humanized 20G6 VL1A_VH1A (bispecific antibody)
light: DIVMTQTPLSLSVTPGQPASISCKSSQSLVHNNGNTYLSWYLQKPGQSPQLLIYKVSNRFSGVPDRFSGSGSGTDFTLKISRVEAEDVGVYYCGQGTQYPFTFGQGTKLEIKGQPKAAPDFVMTQSPSSLTVTAGEKVTMSCKSSQSLLNSGNQKNYLTWYLQKPGQPPKLLIYWASTRESGVPDRFTGSGSGTDFTLTISSVQAEDLAVYYCQNDYSYPYTFGGGTKLEIKTKGPSRTVAAPSVFIFPPSDEQLKSGTASVVCLLNNFYPREAKVQWKVDNALQSGNSQESVTEQDSKDSTYSLSSTLTLSKADYEKHKVYACEVTHQGLSSPVTKSFNRGEC
heavy: EVQLQQSGPELVKPGASVKMSCKASGYTFTDYYMKWVKQSHGKSLEWIGDIIPSNGATFYNQKFKGKATLTVDRSSSTAYMHLNSLTSEDSAVYYCTRSHLLRASWFAYWGQGTLVTVSASQVQLVESGGGVVQPGRSLRLSCAASGFTFTKAWMHWVRQAPGKGLEWVAQIKDKSNSYATYYADSVKGRFTISRDNSKNTLYLQMNSLRAEDTAVYYCRGVYYALSPFDYWGQGTLVTVSSRTASTKGPSVFPLAPSSKSTSGGTAALGCLVKDYFPEPVTVSWNSGALTSGVHTFPAVLQSSGLYSLSSVVTVPSSSLGTQTYICNVNHKPSNTKVDKKVEPKSCDKTHTHHHHHH
Work on B5 yielded a Kd [2] of 0.152 µM, a koff [2] of 0.00434 s⁻¹ and a kon [2] of 28600 M⁻¹ s⁻¹.

B6: CODV-Fab 7G3 × 20G6 with humanized 20G6 VL1B_VH1A (bispecific antibody)
light: DIVMTQTPLSLSVTPGQPASISCKSSQSLVHNNGNTYLSWYLQKPGQSPQLLIYKVSNRFSGVPDRFSGSGSGTDFTLKISRVEAEDVGVYYCGQGTQYPFTFGGGTKVEIKGQPKAAPDFVMTQSPSSLTVTAGEKVTMSCKSSQSLLNSGNQKNYLTWYLQKPGQPPKLLIYWASTRESGVPDRFTGSGSGTDFTLTISSVQAEDLAVYYCQNDYSYPYTFGGGTKLEIKTKGPSRTVAAPSVFIFPPSDEQLKSGTASVVCLLNNFYPREAKVQWKVDNALQSGNSQESVTEQDSKDSTYSLSSTLTLSKADYEKHKVYACEVTHQGLSSPVTKSFNRGEC
heavy: EVQLQQSGPELVKPGASVKMSCKASGYTFTDYYMKWVKQSHGKSLEWIGDIIPSNGATFYNQKFKGKATLTVDRSSSTAYMHLNSLTSEDSAVYYCTRSHLLRASWFAYWGQGTLVTVSASQVQLVESGGGVVQPGRSLRLSCAASGFTFTKAWMHWVRQAPGKGLEWVAQIKDKSNSYATYYADSVKGRFTISRDNSKNTLYLQMNSLRAEDTAVYYCRGVYYALSPFDYWGQGTLVTVSSRTASTKGPSVFPLAPSSKSTSGGTAALGCLVKDYFPEPVTVSWNSGALTSGVHTFPAVLQSSGLYSLSSVVTVPSSSLGTQTYICNVNHKPSNTKVDKKVEPKSCDKTHTHHHHHH
In the case of B6, the Kd [2] is reported as 0.138 µM, the koff [2] is reported as 0.00414 s⁻¹ and the kon [2] is reported as 29900 M⁻¹ s⁻¹.

B7: humanized 4B4 Fab 4B4_6 (VL1a, VH1A) (Fab, V domains shown)
VH: QVQLVETGGGLVKPGQSLKLTCATSGFTFSNAWMHWVRQSPEKGLEWVAQIKARSNNYATYYAESVKGRFTISRDDSKSTIYLQMNSLTPEDTAIYYCRGTYYASKPFDYWGQGVMVTVSS
VL: DVVMTQTPVSLSVSVGGRVSISCRSSQSLVHDNGNTYLSWSLQKPGKSPKVLIYKVSNRFSGVSSRFTGSGSGTDFTLKISSVQPDDLGVYYCGQGTQYPFTFGSGTKLEIK
notes: expressed as Fab-fragment
Binder B7 has a Kd [1] of 0.00124 µM, a koff [1] of 0.00185 s⁻¹ and a kon [1] of 1.5e+06 M⁻¹ s⁻¹.

B8: humanized 4B4 Fab 4B4_17 (VL2A, VH2B) (Fab, V domains shown)
VH: EVQLVETGGGLVQPGGSLKLTCATSGFTFSNAWMHWVRQSPEKGLEWVAQIKARSNNYATYYADSVKGRFTISRDDSKSTIYLQMNSLRAEDTAIYYCRGTYYASKPFDYWGQGVMVTVSS
VL: DVVMTQTPVSLSVSPGGPVSISCRSSQSLVHDNGNTYLSWSLQKPGQSPQVLIYKVSNRFSGVSDRFTGSGSGTDFTLKISRVEPDDLGVYYCGQGTQYPFTFGSGTKLEIK
notes: expressed as Fab-fragment
Binder B8 has a Kd [1] of 0.00891 µM, a koff [1] of 0.00276 s⁻¹ and a kon [1] of 310000 M⁻¹ s⁻¹.

B9: humanized 4B4 Fab 4B4_9 (VL2B, VH2A) (Fab, V domains shown)
VH: EVQLVETGGGLVQPGGSLKLTCATSGFTFSNAWMHWVRQSPEKGLEWVAQIKARSNNYATYYAESVKGRFTISRDDSKSTIYLQMNSLRAEDTAIYYCRGTYYASKPFDYWGQGVMVTVSS
VL: DVVMTQTPVSLSVSPGGPVSISCRSSQSLVHDNANTYLSWSLQKPGQSPQVLIYKVSNRFSGVSDRFTGSGSGTDFTLKISRVEPDDLGVYYCGQGTQYPFTFGSGTKLEIK
notes: expressed as Fab-fragment
B9 showed a Kd [1] of 0.0134 µM, a koff [1] of 0.00291 s⁻¹ and a kon [1] of 218000 M⁻¹ s⁻¹.

B10: humanized 4B4 Fab 4B4_1 (VL1a, VH1B) (Fab, V domains shown)
VH: QVQLVETGGGLVKPGQSLKLTCATSGFTFSNAWMHWVRQSPEKGLEWVAQIKARSNNYATYYAVSVKGRFTISRDDSKSTIYLQMNSLTPEDTAIYYCRGTYYASKPFDYWGQGVMVTVSS
VL: DVVMTQTPVSLSVSVGGRVSISCRSSQSLVHDNGNTYLSWSLQKPGKSPKVLIYKVSNRFSGVSSRFTGSGSGTDFTLKISSVQPDDLGVYYCGQGTQYPFTFGSGTKLEIK
notes: expressed as Fab-fragment
Binder B10 has a Kd [1] of 0.00277 µM, a koff [1] of 0.00174 s⁻¹ and a kon [1] of 628000 M⁻¹ s⁻¹.

B11: humanized 4B4 Fab 4B4_7 (VL1b, VH1A) (Fab, V domains shown)
VH: QVQLVETGGGLVKPGQSLKLTCATSGFTFSNAWMHWVRQSPEKGLEWVAQIKARSNNYATYYAESVKGRFTISRDDSKSTIYLQMNSLTPEDTAIYYCRGTYYASKPFDYWGQGVMVTVSS
VL: DVVMTQTPVSLSVSVGGRVSISCRSSQSLVHDNANTYLSWSLQKPGKSPKVLIYKVSNRFSGVSSRFTGSGSGTDFTLKISSVQPDDLGVYYCGQGTQYPFTFGSGTKLEIK
notes: expressed as Fab-fragment
For B11, the Kd [1] was 0.0081 µM, the koff [1] was 0.00248 s⁻¹ and the kon [1] was 306000 M⁻¹ s⁻¹.

B12: humanized 4B4 Fab 4B4_2 (VL1b, VH1B) (Fab, V domains shown)
VH: QVQLVETGGGLVKPGQSLKLTCATSGFTFSNAWMHWVRQSPEKGLEWVAQIKARSNNYATYYAVSVKGRFTISRDDSKSTIYLQMNSLTPEDTAIYYCRGTYYASKPFDYWGQGVMVTVSS
VL: DVVMTQTPVSLSVSVGGRVSISCRSSQSLVHDNANTYLSWSLQKPGKSPKVLIYKVSNRFSGVSSRFTGSGSGTDFTLKISSVQPDDLGVYYCGQGTQYPFTFGSGTKLEIK
notes: expressed as Fab-fragment
B12 showed a Kd [1] of 0.00748 µM, a koff [1] of 0.00214 s⁻¹ and a kon [1] of 286000 M⁻¹ s⁻¹.
